Results published in the Human Domainome abundance scans (Beltran et al. 2025).
± gives the uncertainty stated by the source.

B1: Transcription factor SOX-4, residues 60 to 127; numbered along this chain, Q06945 (parent)
chain: KRPMNAFMVWSQIERRKIMEQSPDMHNAEISKRLGKRWKLLKDSDKIPFIREAERLRLKHMADYPDYK

Variants of: B1
Assay: abundance fitness (aPCA) (normalised: wild type 0, dead -1); higher = more abundant; growth selection in yeast, the domain comes from the species named
Conditions: Homo sapiens

Variant | abundance fitness
A53E | -0.52 ± 0.084
A53Y | -0.347 ± 0.12
P65T | -0.064 ± 0.075
P65G | -0.059 ± 0.09
P65Y | -0.124 ± 0.24
P65R | -0.174 ± 0.056
S22M | -0.276 ± 0.055
S22T | -0.326 ± 0.094
S22V | -0.272 ± 0.042
S22K | -0.191 ± 0.049
S22Y | 0.066 ± 0.054
K36L | -0.105 ± 0.057
K36N | 0.04 ± 0.24
K36P | -0.722 ± 0.18
K36H | -0.141 ± 0.15
K36F | -0.053 ± 0.13
K36V | 0.057 ± 0.063
D63E | 0.044 ± 0.042
D63M | 0.055 ± 0.052
D63L | -0.208 ± 0.039
D63Y | -0.233 ± 0.057

Variant | abundance fitness
D63A | -0.074 ± 0.051
D63H | -0.168 ± 0.057
M61C | -0.071 ± 0.083
M61H | 0.098 ± 0.061
N5T | 0.095 ± 0.047
N5H | -0.632 ± 0.18
N5Y | -0.472 ± 0.18
N5Q | -0.585 ± 0.12
N5S | 0.016 ± 0.065
W10E | -0.964 ± 0.28
W10L | -0.999 ± 0.12
W10Q | -0.921 ± 0.33
L56P | -0.655 ± 0.1
L56G | -0.341 ± 0.071
L56E | -0.201 ± 0.1
L56V | -0.286 ± 0.063
K46H | -1.09 ± 0.14
K46Q | -0.701 ± 0.14
K46L | -0.652 ± 0.063
K46D | -0.524 ± 0.072
K46C | -0.814 ± 0.087

Variant | abundance fitness
K46M | -0.841 ± 0.074
D43M | -0.062 ± 0.056
D43E | -0.058 ± 0.057
V9R | -1 ± 0.14
V9C | -0.258 ± 0.16
V9H | -0.733 ± 0.18
V9E | -0.856 ± 0.19
R2Y | -0.374 ± 0.41
R2V | -0.08 ± 0.07
R2K | -0.135 ± 0.12
R2N | -0.154 ± 0.16
R2G | -0.121 ± 0.086
R2F | -0.113 ± 0.12
L34G | -0.973 ± 0.14
I18M | -0.169 ± 0.066
I18K | -0.892 ± 0.17
S11L | -0.432 ± 0.045
S11Q | -0.323 ± 0.092
S11M | -0.394 ± 0.079
S11T | -0.69 ± 0.11
R37H | -0.313 ± 0.25

Variant | abundance fitness
R37E | 0.043 ± 0.07
R37A | 0.133 ± 0.053
R37C | -0.366 ± 0.2
E29A | -0.199 ± 0.071
F49P | -1.08 ± 0.23
F49Q | -0.972 ± 0.15
F49Y | -0.044 ± 0.11
R16I | -0.216 ± 0.053
R16M | -0.212 ± 0.075
R16F | -0.368 ± 0.055
R16C | -0.206 ± 0.057
E54Q | -0.071 ± 0.062
E54N | -0.158 ± 0.041
E54L | -0.501 ± 0.045
H26N | 0.289 ± 0.25
H26V | -0.039 ± 0.11
H26D | 0.191 ± 0.094
H26W | -0.281 ± 0.079
H26S | 0.291 ± 0.075
H26L | -0.1 ± 0.051
H26Y | -0.652 ± 0.39
